Laboratory results taken from the supplement of paper PMC10567573.

B1: RSPH3 (parent)
chain: VDVQTELYLEEIADRIIEVDMECQ

Variants of: B1
Test: protein stability index of a GFP-peptide fusion (GPS, HEK-293T) (PSI 1-6); higher = more stable
Details: c terminus: a fixed tail appended
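Also: lentivirally expressed fusions sorted by FACS into six bins by GFP to DsRed ratio, PSI derived from sequencing read proportions per bin multiplied by bin number.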

| Variant | protein stability index |
| --- | --- |
| VDVQTCLYLEEIADRIIEVDMECQ | 1.57 |
| VDVQTTLYLEEIADRIIEVDMECQ | 1.83 |
| VDVQTNLYLEEIADRIIEVDMECQ | 2.18 |
| VDVQTFLYLEEIADRIIEVDMECQ | 1.64 |
| VDVQTALYLEEIADRIIEVDMECQ | 1.73 |
| VDVQTMLYLEEIADRIIEVDMECQ | 3.63 |
| VDVQTKLYLEEIADRIIEVDMECQ | 2.44 |
| VDVQTDLYLEEIADRIIEVDMECQ | 2.03 |
| VDVQTGLYLEEIADRIIEVDMECQ | 3.25 |
| VDVQYELYLEEIADRIIEVDMECQ | 3.42 |
| VDVQDELYLEEIADRIIEVDMECQ | 3.17 |
| VDVQSELYLEEIADRIIEVDMECQ | 2.5 |
| VDVQRELYLEEIADRIIEVDMECQ | 3.09 |
| VDVQFELYLEEIADRIIEVDMECQ | 2.96 |
| VDVQGELYLEEIADRIIEVDMECQ | 2.46 |
| VDVQKELYLEEIADRIIEVDMECQ | 3.87 |
| VDVQHELYLEEIADRIIEVDMECQ | 2.42 |
| VDVQQELYLEEIADRIIEVDMECQ | 2.52 |
| VDVQMELYLEEIADRIIEVDMECQ | 2.38 |
| VDVQAELYLEEIADRIIEVDMECQ | 2.3 |
| VDVQCELYLEEIADRIIEVDMECQ | 1.75 |
| VDVQNELYLEEIADRIIEVDMECQ | 3.23 |
| VDVQEELYLEEIADRIIEVDMECQ | 3.08 |
| VDVQPELYLEEIADRIIEVDMECQ | 3.27 |

| Variant | protein stability index |
| --- | --- |
| VQVQTELYLEEIADRIIEVDMECQ | 1.72 |
| VMVQTELYLEEIADRIIEVDMECQ | 3.88 |
| VPVQTELYLEEIADRIIEVDMECQ | 3.08 |
| VKVQTELYLEEIADRIIEVDMECQ | 1.91 |
| VLVQTELYLEEIADRIIEVDMECQ | 2.6 |
| VTVQTELYLEEIADRIIEVDMECQ | 2.39 |
| VGVQTELYLEEIADRIIEVDMECQ | 1.81 |
| VEVQTELYLEEIADRIIEVDMECQ | 2.51 |
| VNVQTELYLEEIADRIIEVDMECQ | 2.17 |
| VAVQTELYLEEIADRIIEVDMECQ | 1.63 |
| VYVQTELYLEEIADRIIEVDMECQ | 3.84 |
| VRVQTELYLEEIADRIIEVDMECQ | 1.76 |
| VCVQTELYLEEIADRIIEVDMECQ | 2.57 |
| VIVQTELYLEEIADRIIEVDMECQ | 2.61 |
| VSVQTELYLEEIADRIIEVDMECQ | 1.81 |
| VDVSTELYLEEIADRIIEVDMECQ | 2.7 |
| VDVPTELYLEEIADRIIEVDMECQ | 2.39 |
| VDVCTELYLEEIADRIIEVDMECQ | 2.29 |
| VDVETELYLEEIADRIIEVDMECQ | 2.32 |
| VDVDTELYLEEIADRIIEVDMECQ | 1.45 |
| VDVTTELYLEEIADRIIEVDMECQ | 2.47 |
| VDVGTELYLEEIADRIIEVDMECQ | 3.62 |
| VDVLTELYLEEIADRIIEVDMECQ | 1.97 |
